# Laboratory results reported in patent publication US20250145730A1 (SHANGHAI BAO PHARMACEUTICALS, published 2025).
# B1: Antibody 8 (antibody, human IgG1, kappa)
# heavy: not shown
# light: DIVMTQSHLSMSTSLGDPVSITCKASQDVSTVVAWYQQKPGQSPRRLIYSASYRYIGVPDRFTGSGAGTDFTFTISSVQAEDLAVYYCQQHYSPPYTFGGGTKLEIKRTVAAPSVFIFPPSDEQLKSGTASVVCLLNNFYPREAKVQWKVDNALQSGNSQESVTEQDSKDSTYSLSSTLTLSKADYEKHKVYACEVTHQGLSSPVTKSFNRGEC
# notes: also called antibody 3-Fucose
# Target: T1, human FcRn (human, UniProt P55899 24-297; P61769 21-119)
# T1 construct: also called hFcRn
# T1 sequence (P55899 24-297 limits assumed, chain 1 of 2): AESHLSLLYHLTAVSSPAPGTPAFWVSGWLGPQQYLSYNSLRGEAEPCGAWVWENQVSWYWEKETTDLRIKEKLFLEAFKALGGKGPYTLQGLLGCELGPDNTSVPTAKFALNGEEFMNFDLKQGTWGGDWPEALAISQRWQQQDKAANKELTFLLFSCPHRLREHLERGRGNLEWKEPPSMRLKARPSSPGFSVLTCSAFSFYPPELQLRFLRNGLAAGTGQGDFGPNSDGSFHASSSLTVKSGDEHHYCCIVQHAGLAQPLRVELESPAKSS
# T1 sequence (P61769 21-119 limits assumed, chain 2 of 2): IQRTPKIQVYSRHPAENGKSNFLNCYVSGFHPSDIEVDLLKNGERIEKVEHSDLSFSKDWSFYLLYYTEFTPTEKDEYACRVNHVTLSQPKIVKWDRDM
# Test: BLI, acidic conditions, against the wild-type antibody
binder,measurement,value
B1,fold of the wild-type antibody's affinity,≤ 3 fold
